doi:10.1101/2025.08.30.673243

Legend:
[1] = target: HeLa cohesin (unlabelled cohesin-STAG1) (human (endogenous in HeLa)) (UniProt Q14683); test: single-molecule fluorescence imaging of DNA loop extrusion
[2] = target: HeLa cohesin (unlabelled cohesin-STAG1) (human (endogenous in HeLa)) (UniProt Q14683); test: as above; remark: listed apart in the source

UniProt Q14683, sequence (Q14683 whole entry, chain 1 of 4): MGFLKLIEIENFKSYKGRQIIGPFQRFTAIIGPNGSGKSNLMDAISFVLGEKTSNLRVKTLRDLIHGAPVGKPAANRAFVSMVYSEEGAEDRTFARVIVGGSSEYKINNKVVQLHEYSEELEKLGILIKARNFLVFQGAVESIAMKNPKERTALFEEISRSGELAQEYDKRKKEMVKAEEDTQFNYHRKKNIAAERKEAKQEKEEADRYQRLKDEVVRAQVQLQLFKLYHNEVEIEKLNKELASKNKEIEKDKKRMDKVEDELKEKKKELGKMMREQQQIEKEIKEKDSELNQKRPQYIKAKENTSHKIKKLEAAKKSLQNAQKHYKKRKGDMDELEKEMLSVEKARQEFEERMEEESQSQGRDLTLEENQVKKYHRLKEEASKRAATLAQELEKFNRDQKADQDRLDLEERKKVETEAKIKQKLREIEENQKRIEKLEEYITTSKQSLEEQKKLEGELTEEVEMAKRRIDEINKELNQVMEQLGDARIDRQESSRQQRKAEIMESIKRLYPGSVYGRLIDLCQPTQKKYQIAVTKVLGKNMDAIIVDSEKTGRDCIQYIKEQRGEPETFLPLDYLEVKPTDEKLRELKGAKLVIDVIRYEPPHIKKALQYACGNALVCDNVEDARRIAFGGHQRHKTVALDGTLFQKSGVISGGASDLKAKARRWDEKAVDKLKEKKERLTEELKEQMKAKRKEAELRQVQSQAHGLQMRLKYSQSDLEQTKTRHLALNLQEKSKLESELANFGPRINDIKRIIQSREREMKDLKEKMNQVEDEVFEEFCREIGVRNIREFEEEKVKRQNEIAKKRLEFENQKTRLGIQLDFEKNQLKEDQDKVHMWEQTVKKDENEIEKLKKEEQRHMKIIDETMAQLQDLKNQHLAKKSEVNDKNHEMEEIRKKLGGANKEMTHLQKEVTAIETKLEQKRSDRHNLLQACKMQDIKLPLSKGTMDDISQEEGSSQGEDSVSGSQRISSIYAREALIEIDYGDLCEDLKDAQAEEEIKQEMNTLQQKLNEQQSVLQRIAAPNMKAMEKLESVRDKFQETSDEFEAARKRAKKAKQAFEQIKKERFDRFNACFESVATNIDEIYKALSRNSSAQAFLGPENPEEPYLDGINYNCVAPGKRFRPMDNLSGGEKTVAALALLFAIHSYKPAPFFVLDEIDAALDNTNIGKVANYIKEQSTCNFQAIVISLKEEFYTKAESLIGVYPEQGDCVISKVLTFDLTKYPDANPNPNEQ
UniProt Q14683, sequence (Q9UQE7 whole entry, chain 2 of 4, further chain): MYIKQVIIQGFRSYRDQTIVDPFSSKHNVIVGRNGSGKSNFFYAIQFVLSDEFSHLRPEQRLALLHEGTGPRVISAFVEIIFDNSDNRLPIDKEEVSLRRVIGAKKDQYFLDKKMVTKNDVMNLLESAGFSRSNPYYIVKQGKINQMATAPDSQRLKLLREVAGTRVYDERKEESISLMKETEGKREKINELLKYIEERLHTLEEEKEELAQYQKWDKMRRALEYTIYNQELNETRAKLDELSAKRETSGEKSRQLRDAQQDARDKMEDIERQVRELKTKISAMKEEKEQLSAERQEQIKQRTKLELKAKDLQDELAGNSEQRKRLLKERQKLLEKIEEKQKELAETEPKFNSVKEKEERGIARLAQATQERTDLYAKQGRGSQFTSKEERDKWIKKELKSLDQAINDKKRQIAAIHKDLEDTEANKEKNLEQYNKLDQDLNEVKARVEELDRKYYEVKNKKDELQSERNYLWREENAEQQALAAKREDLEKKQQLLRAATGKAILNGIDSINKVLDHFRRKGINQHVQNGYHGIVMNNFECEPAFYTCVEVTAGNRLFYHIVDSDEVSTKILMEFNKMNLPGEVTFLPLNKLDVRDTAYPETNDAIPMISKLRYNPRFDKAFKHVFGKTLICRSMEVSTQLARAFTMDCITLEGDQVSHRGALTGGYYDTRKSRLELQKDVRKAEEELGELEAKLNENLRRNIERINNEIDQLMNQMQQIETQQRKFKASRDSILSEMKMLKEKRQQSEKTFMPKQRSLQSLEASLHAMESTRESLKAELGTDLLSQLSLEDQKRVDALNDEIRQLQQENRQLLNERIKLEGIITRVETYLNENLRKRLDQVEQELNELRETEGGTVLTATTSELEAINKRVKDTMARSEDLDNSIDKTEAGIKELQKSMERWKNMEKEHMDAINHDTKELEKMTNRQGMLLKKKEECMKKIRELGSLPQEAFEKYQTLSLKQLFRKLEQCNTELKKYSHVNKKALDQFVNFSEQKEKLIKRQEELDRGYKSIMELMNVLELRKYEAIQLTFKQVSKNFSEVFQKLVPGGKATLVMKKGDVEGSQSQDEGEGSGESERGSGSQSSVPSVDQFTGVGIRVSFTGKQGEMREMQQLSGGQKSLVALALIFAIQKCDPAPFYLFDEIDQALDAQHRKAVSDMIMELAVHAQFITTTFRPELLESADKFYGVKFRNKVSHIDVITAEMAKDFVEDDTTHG
UniProt Q14683, sequence (O60216 whole entry, chain 3 of 4, further chain): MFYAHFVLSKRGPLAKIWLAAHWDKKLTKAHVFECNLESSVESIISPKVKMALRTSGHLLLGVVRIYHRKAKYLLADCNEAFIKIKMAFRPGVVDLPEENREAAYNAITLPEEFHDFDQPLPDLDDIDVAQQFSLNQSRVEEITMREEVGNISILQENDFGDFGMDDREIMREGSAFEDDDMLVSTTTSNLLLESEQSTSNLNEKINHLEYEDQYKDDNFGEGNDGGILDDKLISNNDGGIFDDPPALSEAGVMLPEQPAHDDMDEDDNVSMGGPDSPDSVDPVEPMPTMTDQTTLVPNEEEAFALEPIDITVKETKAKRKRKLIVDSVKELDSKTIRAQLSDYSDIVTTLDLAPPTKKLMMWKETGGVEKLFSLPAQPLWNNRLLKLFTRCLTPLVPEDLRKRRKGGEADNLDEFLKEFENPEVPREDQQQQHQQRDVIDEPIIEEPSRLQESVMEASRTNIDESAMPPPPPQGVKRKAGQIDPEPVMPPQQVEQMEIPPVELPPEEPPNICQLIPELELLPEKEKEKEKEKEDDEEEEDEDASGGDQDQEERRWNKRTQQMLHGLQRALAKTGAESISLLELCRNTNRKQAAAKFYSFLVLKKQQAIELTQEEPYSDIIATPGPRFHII
UniProt Q14683, sequence (Q8WVM7 whole entry, chain 4 of 4, further chain): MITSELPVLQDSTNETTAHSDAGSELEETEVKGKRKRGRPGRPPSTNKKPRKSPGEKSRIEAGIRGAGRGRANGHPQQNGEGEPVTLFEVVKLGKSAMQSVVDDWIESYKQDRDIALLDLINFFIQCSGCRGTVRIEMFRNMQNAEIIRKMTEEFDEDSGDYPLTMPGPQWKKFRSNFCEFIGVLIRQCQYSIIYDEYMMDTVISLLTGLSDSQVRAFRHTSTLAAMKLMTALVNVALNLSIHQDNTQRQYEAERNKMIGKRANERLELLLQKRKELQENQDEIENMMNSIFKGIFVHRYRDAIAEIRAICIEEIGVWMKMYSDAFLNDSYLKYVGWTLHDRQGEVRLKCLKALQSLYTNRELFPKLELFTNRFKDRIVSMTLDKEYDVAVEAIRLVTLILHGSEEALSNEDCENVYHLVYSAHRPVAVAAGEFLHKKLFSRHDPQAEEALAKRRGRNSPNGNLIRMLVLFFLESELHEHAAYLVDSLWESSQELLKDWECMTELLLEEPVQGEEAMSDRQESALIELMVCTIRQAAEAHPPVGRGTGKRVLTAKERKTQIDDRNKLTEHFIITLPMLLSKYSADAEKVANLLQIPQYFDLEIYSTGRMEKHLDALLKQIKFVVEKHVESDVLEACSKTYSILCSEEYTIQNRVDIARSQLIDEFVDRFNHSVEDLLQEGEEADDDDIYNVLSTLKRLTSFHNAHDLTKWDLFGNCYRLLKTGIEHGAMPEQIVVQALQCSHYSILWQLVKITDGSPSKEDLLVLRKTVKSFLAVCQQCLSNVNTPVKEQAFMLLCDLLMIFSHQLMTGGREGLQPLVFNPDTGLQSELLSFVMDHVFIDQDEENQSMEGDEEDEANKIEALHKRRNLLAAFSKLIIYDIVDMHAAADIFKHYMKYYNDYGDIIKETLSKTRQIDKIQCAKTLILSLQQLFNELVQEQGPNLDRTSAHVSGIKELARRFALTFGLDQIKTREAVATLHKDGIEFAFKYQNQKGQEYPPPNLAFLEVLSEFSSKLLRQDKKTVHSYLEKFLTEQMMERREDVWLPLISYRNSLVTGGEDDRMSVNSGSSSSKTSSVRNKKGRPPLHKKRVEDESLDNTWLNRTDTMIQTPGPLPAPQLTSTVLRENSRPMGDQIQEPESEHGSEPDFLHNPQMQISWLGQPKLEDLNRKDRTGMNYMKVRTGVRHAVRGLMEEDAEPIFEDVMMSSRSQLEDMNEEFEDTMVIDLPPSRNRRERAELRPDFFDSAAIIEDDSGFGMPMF

| median residence time of NIPBL on loops, no PDS5B added [1] [s] | residence time of NIPBL on loops on which NIPBL was exchanged with PDS5B [1] [s] | median time for which NIPBL and PDS5B were both on the loop during exchange [2] [s] | Molecule |
| --- | --- | --- | --- |
| 50 | 38 |  | NIPBL-ΔN labelled with ATTO550 (BB241) (domain or fragment) |
|  |  | 3 | PDS5B labelled with JF646 (natural protein, JF646-HaloTag ligand on the HaloTag) MAHSKTRTNDGKITYPPGVKEISDKISKEEMVRRLKMVVKTFMDMDQDSEEEKELYLNLALHLASDFFLKHPDKDVRLLVACCLADIFRIYAPEAPYTSPDKLKDIFMFITRQLKGLEDTKSPQFNRYFYLLENIAWVKSYNICFELEDSNEIFTQLYRTLFSVINNGHNQKVHMHMVDLMSSIICEGDTVSQELLDTVLVNLVPAHKNLNKQAYDLAKALLKRTAQAIEPYITNFFNQVLMLGKTSISDLSEHVFDLILELYNIDSHLLLSVLPQLEFKLKSNDNEERLQVVKLLAKMFGAKDSELASQNKPLWQCYLGRFNDIHVPIRLECVKFASHCLMNHPDLAKDLTEYLKVRSHDPEEAIRHDVIVSIVTAAKKDILLVNDHLLNFVRERTLDKRWRVRKEAMMGLAQIYKKYALQSAAGKDAAKQIAWIKDKLLHIYYQNSIDDRLLVERIFAQYMVPHNLETTERMKCLYYLYATLDLNAVKALNEMWKCQNLLRHQVKDLLDLIKQPKTDASVKAIFSKVMVITRNLPDPGKAQDFMKKFTQVLEDDEKIRKQLEVLVSPTCSCKQAEGCVREITKKLGNPKQPTNPFLEMIKFLLERIAPVHIDTESISALIKQVNKSIDGTADDEDEGVPTDQAIRAGLELLKVLSFTHPISFHSAETFESLLACLKMDDEKVAEAALQIFKNTGSKIEEDFPHIRSALLPVLHHKSKKGPPRQAKYAIHCIHAIFSSKETQFAQIFEPLHKSLDPSNLEHLITPLVTIGHIALLAPDQFAAPLKSLVATFIVKDLLMNDRLPGKKTTKLWVPDEEVSPETMVKIQAIKMMVRWLLGMKNNHSKSGTSTLRLLTTILHSDGDLTEQGKISKPDMSRLRLAAGSAIVKLAQEPCYHEIITLEQYQLCALAINDECYQVRQVFAQKLHKGLSRLRLPLEYMAICALCAKDPVKERRAHARQCLVKNINVRREYLKQHAAVSEKLLSLLPEYVVPYTIHLLAHDPDYVKVQDIEQLKDVKECLWFVLEILMAKNENNSHAFIRKMVENIKQTKDAQGPDDAKMNEKLYTVCDVAMNIIMSKSTTYSLESPKDPVLPARFFTQPDKNFSNTKNYLPPEMKSFFTPGKPKTTNVLGAVNKPLSSAGKQSQTKSSRMETVSNASSSSNPSSPGRIKGRLDSSEMDHSENEDYTMSSPLPGKKSDKRDDSDLVRSELEKPRGRKKTPVTEQEEKLGMDDLTKLVQEQKPKGSQRSRKRGHTASESDEQQWPEEKRLKEDILENEDEQNSPPKKGKRGRPPKPLGGGTPKEEPTMKTSKKGSKKKSGPPAPEEEEEEERQSGNTEQKSKSKQHRVSRRAQQRAESPESSAIESTQSTPQKGRGRPSKTPSPSQPKKNVRVGRSKQAATKENDSSEEVDVFQGSSPVDDIPQEETEEEEVSTVNVRRRSAKRERR |
